In patent publication US20170112900A1 (Pieris, published 2017):

Molecular target: T1, human IL-4 receptor alpha chain (Interleukin-4 receptor subunit alpha, Uniprot #P24394, SEQ ID NO: 12) (human, UniProt P24394 26-232, limits assumed)
T1 construct: also called IL-4RA; human IL-4RA
T1 sequence: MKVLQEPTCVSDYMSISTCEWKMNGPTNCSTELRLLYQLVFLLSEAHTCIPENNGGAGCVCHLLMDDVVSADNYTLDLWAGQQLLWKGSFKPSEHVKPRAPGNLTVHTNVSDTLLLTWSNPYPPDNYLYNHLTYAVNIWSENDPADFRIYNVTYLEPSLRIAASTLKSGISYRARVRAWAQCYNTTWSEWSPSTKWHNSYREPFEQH
Assay: method not stated; target IL-4RA implied by the text

Kd: 0.154 nM
koff: 0.0029 s⁻¹
kon: 1.9e+07 M⁻¹ s⁻¹
B1: IL-4 double mutant IL-4 (R121D, Y124D) (ligand, UniProt P05112 25-153, looked up)
chain: HKCDITLQEIIKTLNSLTEQKTLCTELTVTDIFAASKNTTEKETFCRAATVLRQFYSHHEKDTRCLGATAQQFHRHKQLIRFLKRLDRNLWGLAGLNSCPVKEANQSTLENFLERLKTIMDEKDSKCSS
notes: they probably count on mature IL-4, not on the precursor entry; also called IL-4 mutant (R121D, Y124D); IL-4 mutant
